This note sets out measurements from patent US20230203471A1, “METHOD AND PLATFORM FOR DISRUPTING INTRACELLULAR MICROTUBULES” (National Tsing Hua University, priority 2021, published 2023).

In assay [1] the test system is intracellular microtubules in HeLa cells. The assay is described as follows: Live-cell imaging of MT disruption (MT filament area) in transfected HeLa cells. Type of assay: cell-based. As for the experimental part:
The procedures of live-cell imaging are as follows. Live transfected cells cultured on poly(d-lysine)-coated glass coverslips (Hecht Assistent) were treated with either 100 nM rapamycin for rapid induction of protein dimerization and translocation or MT-targeting agents (10 µM nocodazole or 500 µM colchicine) during imaging. Live-cell imaging was conducted on a Nikon T1 inverted fluorescence microscope (Nikon) with a 60× oil objective (Nikon), a Prime camera (Photometrics), and 37° C., 5% CO2 heat stage (Live Cell Instrument). Rapid recruitment of proteins of interest (POIs) was imaged at 5- or 10-sec intervals, whereas the process of MT disruption was imaged at 1-min intervals. Images were obtained using Nikon NIS-Elements AR software and processed with Huygens Deconvolution Software (Scientific Volume Imaging). Image analysis was mainly performed with Nikon NIS-Elements AR software.
The procedures of measurement of MT filament area are as follows. The MT filaments in living cells were labeled with EMTB-CFP-FRB and imaged in real time (RAW image). The rolling ball correction was used to remove the cytosol background from the RAW images, which was carried out with the Nikon NIS-Elements AR software. Images were processed to generate the binary MT filament pattern via the Otsu threshold and analyzed by Fiji software.
FIGS. 2D and 2E show rapidly recruiting engineered spastins onto MTs. […] The top three layers are cells that simultaneously express EMTB-CFP-FRB and dNSpastin3Q-YFP-FKBP. The lower three layers are cells that simultaneously express EMTB-CFP-FRB and dNSpastin-YFP-FKBP-C2Lact. The color bar on the right indicates the brightness value represented by the color of the FRET signal. […] Data are shown as the mean ± S.E.M. It was noteworthy that MT disruption triggered by dNSpastin3Q-YFP-FKBP upon rapamycin treatment (T½ = 11.05 ± 1.52 min) was much faster than that of dNSpastin-YFP-FKBP-C2Lact upon rapamycin treatment (T½ = 53.08 ± 8.08 min), and treatment of two common MTAs, nocodazole (10 µM; T½ = 54.02 ± 10.29 min), colchicine (500 µM; T½ = 94.28 ± 8.63 min; see FIGS. 2F to 2J). […] In FIG. 2H, HeLa cells transfected with the indicated constructs were treated with nocodazole (Noc)([…], a type of MTA), colchicine (Col)(500 µM, a type of MTA), or rapamycin (Rapa)(100 nM); scale bar, 10 µm. […] Data are shown as the mean ± S.E.M. Student’s t-tests were performed, with the resulting p-values indicated.

For assay [2], the target named is MT-binding domain of ensconsin-cyan fluorescent protein-FKBP-rapamycin binding domain (EMTB-CFP-FRB) (Artificial Sequence). The assay is described as follows: FRET live-cell imaging in co-transfected HeLa cells, 100 nM rapamycin.
For assay [3], the system named is cytosolic MTs in HeLa cells. The assay is described as follows: Immunofluorescence staining of α-tubulin in HeLa cells expressing spastin constructs. The note with it: expression in HeLa cells, α-tubulin intensity. In kind it is cell-based. As for the experimental part:
The procedures of immunofluorescence staining are as follows. Cells cultured in borosilicate glass Lab-Tek eight-well chambers (Nunc) were fixed in 4% paraformaldehyde (Electron Microscopy Sciences) at room temperature for 15 min. Fixed cells were permeabilized with 0.1% Triton X-100 and then incubated in blocking solution (phosphate-buffered saline with 2% bovine serum albumin) for 30 min at room temperature. To label cytosolic MTs, primary ciliary membrane, and axonemal MTs, cells were incubated for 1 hr at room temperature with mouse antibody against α-tubulin (1:500; Sigma Aldrich, T6199), rabbit antibody against Arl13b (1:500; Proteintech, 17711-1-AP), mouse antibody against glutamylated tubulin (1:100; Adipogen, AG-20B-0020-C100), mouse antibody against acetylated tubulin (1:500; Sigma Aldrich, T7451), rat antibody against tyrosinated tubulin (1:100; Sigma Aldrich, MAB1864), and mouse antibody against detyrosinated tubulin (1:100; MERCK, AB3201) each of which was diluted in blocking solution. Cells were then washed with PBS and incubated for 1 hr with appropriate secondary antibodies (1:1000 dilution; Thermo Fisher) at room temperature.
Spastin is a MT-cleaving enzyme that is ubiquitous in nearly all eukaryotic cells. Expression of full-length spastin (SpastinFL-YFP; the amino acid sequence of spastin is SEQ ID NO: 1) and truncated spastin without the N-terminal 1-140 amino acids (dNSpastin-YFP) in HeLa cells removed significant amounts of cytosolic MTs, 47.45% and 42.86%, respectively, relative to YFP-transfected control cells (See FIGS. 2A to 2C). This means that both full-length spastin and truncated spastin without N-terminal 1-140 amino acids have the effect on disrupting microtubules. FIGS. 2A to 2C show the microtubule cleavage activity of artificially engineered spastin enzyme. […] The dotted line on the right indicates the periphery of the cell that expresses spastin. […] SpastinFL expressed in cells can disrupt the intracellular microtubules. Making SpastinFL be located in the cytosol, truncated spastin would also disrupt the intracellular microtubules, so it would also be located in the cytosol. […] The truncated spastin is used in the subsequent experiments. […] Compared with the YFP control group, both SpastinFL-YFP and dNSpastrin-YFP can disrupt about 40% of the microtubules. Thus the N-terminal fragment (1-140 amino acids) was dispensable for Spastin-mediated MT severing. […]

Assay [4] deals with intracellular microtubules (MTs).
Assay [5] has as its system EMTB-YFP-CIBN-labeled MTs in COS7 cells. Kind of assay: Blue-light-induced recruitment of Cry2 proteins onto EMTB-YFP-CIBN-labeled MTs and MT disassembly. In kind it is cell-based, African green monkey. As for the experimental part:
The procedures of photostimulation are as follows. COS7 cells were plated on poly(d-lysine)-coated coverslips and cultured in six-well plates (Thermo Scientific) for 48 hr. Before imaging, cells were incubated with SPY650-tubulin (1000-fold dilution; Spirochrome) at 37° C. for 1 hr. Local photostimulation was carried out with a fluorescence microscope (Nikon) equipped with a digital micromirror device, polygon 400 (MIGHTEX), and a 488-nm light source. Cells were illuminated with the blue light (5 sec on/1 sec off; 1.6 nW/µm^2) for the indicated duration. The mCherry and SPY650-tubulin were simultaneously imaged during photostimulation using Nikon element AR software.
The inventors next tried to use an optogenetic system to trigger MT disassembly in a sub-cellular region of interest during a specific period of time. Cryptochrome 2 (Cry2) (SEQ ID NO:14) and CIBN (N-terminal 170 amino acids of CIB1) (SEQ ID NO:15), two blue light-sensitive dimerizing partners, were used in our MT-manipulating system. Cry2, which was tagged with the red fluorescent protein mCherry (mCh—Cry2), was rapidly translocated onto EMTB—YFP—CIBN-labeled MTs only in regions illuminated with light (T½ = 34.6 ± 7.58 sec) and dissociated from MTs to the cytosol when the light was off (T½ = 28.2 ± 4.88 sec; see FIGS. 6A and 6B).
FIGS. 6A and 6B show using light to disassemble MTs in a reversible and location-specific manner. In FIG. 6A, COS7 cells co-transfected with EMTB—YFP—CIBN and mCh—Cry2 (red) were incubated with SPY650-tubulin (SPY650-tub) to visualize MTs; the cells were illuminated by blue light within a specified region (indicated by the dotted circle) for the indicated time period; scale bar, 10 µm.
The inventors then used light to control spastin-mediated MT disassembly in a spatially and temporally specific manner. dNSpastin3Q tagged with mCh-Cry2 was co-expressed with EMTB—YFP—CIBN in COS7 cells. MTs were labeled with SPY650-tubulin in these experiments.
FIGS. 6C and 6D show using light to disassemble MTs in a reversible and location-specific manner. In FIG. 6C, COS7 cells co-transfected with EMTB-YFP-CIBN and dNSpastin3Q-mCh—Cry2 were incubated with SPY650-tubulin to visualize MTs; the cells were illuminated by blue light as in FIG. 6A; scale bar, 10 µm. […] Data are shown as the mean ± S.E.M.

Sequence of MT-binding domain of ensconsin-cyan fluorescent protein-FKBP-rapamycin binding domain (EMTB-CFP-FRB) (Artificial Sequence) (chain, as listed by the source): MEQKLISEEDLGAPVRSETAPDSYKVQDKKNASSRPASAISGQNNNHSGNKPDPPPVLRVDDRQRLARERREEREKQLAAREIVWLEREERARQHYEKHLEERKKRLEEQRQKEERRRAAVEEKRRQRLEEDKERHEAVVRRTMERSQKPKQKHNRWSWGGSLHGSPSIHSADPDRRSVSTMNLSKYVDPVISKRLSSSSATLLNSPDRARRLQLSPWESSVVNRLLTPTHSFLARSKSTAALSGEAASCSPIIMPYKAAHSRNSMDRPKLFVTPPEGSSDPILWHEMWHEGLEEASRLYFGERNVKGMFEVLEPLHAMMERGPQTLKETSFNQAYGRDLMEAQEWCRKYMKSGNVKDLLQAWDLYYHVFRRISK

Take `COc1cc2c(c(OC)c1OC)-c1ccc(OC)c(=O)cc1[C@@H](NC(C)=O)CC2` [colchicine]: in assay [1] (500 µM colchicine), the “microtubules removed within one hour” value is given as 49%. Moreover, the “time required to disrupt half of the intracellular microtubules” value in assay [1] (colchicine 500 µM) was 94.28 ± 8.63 min. In assay [1] (colchicine 500 µM, HeLa cells), the “T½ of MT disruption” value was found to be 1.571 ± 0.144 h.

For “yellow fluorescent protein-tagged FKBP (YFP-FKBP)”, in assay [2], the T½ of translocation stood at 5.73 s.

B1: YFP-tagged truncated spastin without the N-terminal 1-140 amino acids (dNSpastin-YFP) (enzyme)
chain: MESGAVPKRKDPLTHASNSLPRSKTVLKSGSAGLSGHHRAPSCSGLSMVSGARPGPGPAATTHKGTPKPNRTNKPSTPTTAVRKKKDLKNFRNVDSNLANLIMNEIVDNGTAVKFDDIAGQELAKQALQEIVILPSLRPELFTGLRAPARGLLLFGPPGNGKTMLAKAVAAESNATFFNISAASLTSKYVGEGEKLVRALFAVARELQPSIIFIDEVDSLLCERREGEHDASRRLKTEFLIEFDGVQSAGDDRVLVMGATNRPQELDEAVLRRFIKRVYVSLPNEETRLLLLKNLLCKQGSPLTQKELAQLARMTDGYSGSDLTALAKDAALGPIRELKPEQVKNMSASEMRNIRLSDFTESLKKIKRSVSPQTLEAYIRWNKDFGDTTV
On to B1, for which the “cytosolic MTs removed relative to YFP-transfected control cells” value in assay [3] is on record as 42.86%; in assay [3] (listed as dNSpastrin-YFP), “about 40%”. In addition, the removal of cytosolic MTs (normalized intensity of α-tubulin) in assay [4] came to 42.9%.

B2: dNSpastin3Q-mCh—Cry2: dNSpastin3Q tagged with mCh-Cry2 (protein)
chain: MESGAVPKRKDPLTHASNSLPRSKTVLKSGSAGLSGHHRAPSCSGLSMVSGARPGPGPAATTHKGTPKPNRTNKPSTPTTAVRQQQDLKNFRNVDSNLANLIMNEIVDNGTAVKFDDIAGQELAKQALQEIVILPSLRPELFTGLRAPARGLLLFGPPGNGKTMLAKAVAAESNATFFNISAASLTSKYVGEGEKLVRALFAVARELQPSIIFIDEVDSLLCERREGEHDASRRLKTEFLIEFDGVQSAGDDRVLVMGATNRPQELDEAVLRRFIKRVYVSLPNEETRLLLLKNLLCKQGSPLTQKELAQLARMTDGYSGSDLTALAKDAALGPIRELKPEQVKNMSASEMRNIRLSDFTESLKKIKRSVSPQTLEAYIRWNKDFGDTTVMKMDKKTIVWFRRDLRIEDNPALAAAAHEGSVFPVFIWCPEEEGQFYPGRASRWWMKQSLAHLSQSLKALGSDLTLIKTHNTISAILDCIRVTGATKVVFNHLYDPVSLVRDHTVKEKLVERGISVQSYNGDLLYEPWEIYCEKGKPFTSFNSYWKKCLDMSIESVMLPPPWRLMPITAAAEAIWACSIEELGLENEAEKPSNALLTRAWSPGWSNADKLLNEFIEKQLIDYAKNSKKVVGNSTSLLSPYLHFGEISVRHVFQCARMKQIIWARDKNSEGEESADLFLRGIGLREYSRYICFNFPFTHEQSLLSHLRFFPWDADVDKFKAWRQGRTGYPLVDAGMRELRATGWMHNRIRVIVSSFAVKFLLLPWKWGMKYFWDTLLDADLECDILGWQYISGSIPDGHELDRLDNPALQGAKYDPEGEYIRQWLPELARLPTEWIHHPWDAPLTVLKASGVELGTNYAKPIVDIDTARELLAKAISRTREAQIMIGAA
As to B2, the “reversibility in the dark” value in assay [5] (COS7 cells placed back in the dark) is given as “MT reassembly occurred”. The “light-induced MT disassembly” value in assay [5] (COS7 cells, local blue light illumination, SPY650-tubulin) was “disassembly of MTs only in illuminated regions”.

B3: YFP-tagged full-length spastin (SpastinFL-YFP) (enzyme)
chain: MAAKRSSGTAPAPASPSPPAPGPGGEAESVRVFHKQAFEYISIALRIDEEEKGQKEQAVEWYKKGIEELEKGIAVIVTGQGEQYERARRLQAKMMTNLVMAKDRLQLLEKLQPVLQFSKSQTDVYNESTNLTCRNGHLQSESGAVPKRKDPLTHASNSLPRSKTVLKSGSAGLSGHHRAPSCSGLSMVSGARPGPGPAATTHKGTPKPNRTNKPSTPTTAVRKKKDLKNFRNVDSNLANLIMNEIVDNGTAVKFDDIAGQELAKQALQEIVILPSLRPELFTGLRAPARGLLLFGPPGNGKTMLAKAVAAESNATFFNISAASLTSKYVGEGEKLVRALFAVARELQPSIIFIDEVDSLLCERREGEHDASRRLKTEFLIEFDGVQSAGDDRVLVMGATNRPQELDEAVLRRFIKRVYVSLPNEETRLLLLKNLLCKQGSPLTQKELAQLARMTDGYSGSDLTALAKDAALGPIRELKPEQVKNMSASEMRNIRLSDFTESLKKIKRSVSPQTLEAYIRWNKDFGDTTV
On to B3, for which, in assay [4], the removal of cytosolic MTs (normalized intensity of α-tubulin) was determined as 47.5%.
